# Experimental data: the supplement of paper PMC9112550, “Optimization of the antimicrobial peptide Bac7 by deep mutational scanning” (BMC Biology, 2022)
# Test system: Escherichia coli TOP10
# Experiment: shrunken log2 fold change of peptide-encoding DNA abundance (4.5 h post-induction vs induction); higher = less antimicrobial activity (less host growth inhibition)
# Conditions: time post-induction: 4.5 h; library: site-saturation at positions 5, 18, 19, 20
# 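Note: peptides expressed intracellularly from a pBAD plasmid library in pooled LB shake-flask culture, induced with 0.3% L-arabinose, DNA abundance read by NGS, three biological replicates, DESeq2 with apeglm shrinkage.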
row,Sequence,shrunken log2 fold change
1,RRIRCRPPRLPRPRPRPSVNPRP,-0.348
2,RRIRWRPPRLPRPRPRPHFYPRP,-0.117
3,RRIRHRPPRLPRPRPRPRPDPRP,0.179
4,RRIRERPPRLPRPRPRPFEDPRP,-0.0547
5,RRIRQRPPRLPRPRPRPAIWPRP,-0.143
6,RRIRKRPPRLPRPRPRPHHPPRP,-0.123
7,RRIRARPPRLPRPRPRPSIYPRP,-0.404
8,RRIRVRPPRLPRPRPRPLCIPRP,-0.499
9,RRIRDRPPRLPRPRPRPYDLPRP,-0.00674
10,RRIRARPPRLPRPRPRPCQFPRP,-0.0602
11,RRIRSRPPRLPRPRPRPYVPPRP,-0.784
12,RRIRVRPPRLPRPRPRPKSCPRP,-0.113
13,RRIRMRPPRLPRPRPRPWQEPRP,-0.107
14,RRIRNRPPRLPRPRPRPDRLPRP,-0.038
15,RRIRMRPPRLPRPRPRPQCIPRP,0.0157
16,RRIRRRPPRLPRPRPRPNGWPRP,0.282
17,RRIRNRPPRLPRPRPRPYDCPRP,-0.109
18,RRIRRRPPRLPRPRPRPVNIPRP,-0.142
19,RRIRQRPPRLPRPRPRPWAWPRP,-0.0707
20,RRIRLRPPRLPRPRPRPCSAPRP,-0.372
21,RRIRLRPPRLPRPRPRPPQTPRP,0.0847
22,RRIRHRPPRLPRPRPRPMLNPRP,-0.114
23,RRIRIRPPRLPRPRPRPFFPPRP,-0.264
24,RRIRKRPPRLPRPRPRPFPKPRP,0.169
25,RRIRGRPPRLPRPRPRPYFFPRP,0.0463

row,Sequence,shrunken log2 fold change
1,RRIRIRPPRLPRPRPRPMAVPRP,0.142
2,RRIRHRPPRLPRPRPRPEAAPRP,0.83
3,RRIRFRPPRLPRPRPRPFFSPRP,-0.59
4,RRIRPRPPRLPRPRPRPYVPPRP,-0.0652
5,RRIRIRPPRLPRPRPRPNWHPRP,-0.227
6,RRIRMRPPRLPRPRPRPLMDPRP,1.24
7,RRIRFRPPRLPRPRPRPHCTPRP,-0.268
8,RRIRGRPPRLPRPRPRPFCRPRP,0.326
9,RRIRSRPPRLPRPRPRPDLWPRP,0.349
10,RRIRKRPPRLPRPRPRPVQAPRP,0.741
11,RRIRPRPPRLPRPRPRPAECPRP,-0.223
12,RRIRYRPPRLPRPRPRPEFKPRP,0.0136
13,RRIRHRPPRLPRPRPRPWHTPRP,-0.566
14,RRIRHRPPRLPRPRPRPMAHPRP,0.0179
15,RRIRLRPPRLPRPRPRPYPWPRP,-0.141
16,RRIRSRPPRLPRPRPRPPSEPRP,0.0467
17,RRIRCRPPRLPRPRPRPFAAPRP,0.308
18,RRIRERPPRLPRPRPRPGPMPRP,0.224
19,RRIRWRPPRLPRPRPRPPFDPRP,0.445
20,RRIRDRPPRLPRPRPRPTVLPRP,0.306
21,RRIRYRPPRLPRPRPRPEIWPRP,0.212
22,RRIRYRPPRLPRPRPRPLVLPRP,-0.206
23,RRIRQRPPRLPRPRPRPWAMPRP,-0.0161
24,RRIRSRPPRLPRPRPRPKLCPRP,0.0502
25,RRIRVRPPRLPRPRPRPETQPRP,0.259

row,Sequence,shrunken log2 fold change
1,RRIRRRPPRLPRPRPRPLSKPRP,1.95
2,RRIRPRPPRLPRPRPRPPVDPRP,0.52
3,RRIRFRPPRLPRPRPRPRTQPRP,1.93
4,RRIRSRPPRLPRPRPRPGRQPRP,-0.00462
5,RRIRWRPPRLPRPRPRPMLKPRP,-0.109
6,RRIRIRPPRLPRPRPRPILSPRP,-0.421
7,RRIRYRPPRLPRPRPRPHCYPRP,-0.426
8,RRIRTRPPRLPRPRPRPHPKPRP,-0.0492
9,RRIRCRPPRLPRPRPRPYDYPRP,-0.27
10,RRIRPRPPRLPRPRPRPTNVPRP,-0.0325
11,RRIRFRPPRLPRPRPRPCGMPRP,-0.24
12,RRIRHRPPRLPRPRPRPACSPRP,-0.104
13,RRIRYRPPRLPRPRPRPLRRPRP,0.17
14,RRIRMRPPRLPRPRPRPYAQPRP,-0.291
15,RRIRMRPPRLPRPRPRPDTYPRP,0.0447
16,RRIRMRPPRLPRPRPRPVCLPRP,0.174
17,RRIRERPPRLPRPRPRPEDMPRP,-0.0115
18,RRIRERPPRLPRPRPRPHTEPRP,-0.239
19,RRIRMRPPRLPRPRPRPFVVPRP,-0.254
20,RRIRARPPRLPRPRPRPMVYPRP,-0.0537
21,RRIRFRPPRLPRPRPRPLWVPRP,0.0127
22,RRIRQRPPRLPRPRPRPKYCPRP,0.0636
23,RRIRYRPPRLPRPRPRPKNQPRP,-0.777
24,RRIRYRPPRLPRPRPRPIKTPRP,-0.154
25,RRIRARPPRLPRPRPRPSENPRP,0.182

row,Sequence,shrunken log2 fold change
1,RRIRSRPPRLPRPRPRPNGAPRP,-0.299
2,RRIRARPPRLPRPRPRPDIRPRP,0.148
3,RRIRIRPPRLPRPRPRPCYVPRP,-0.411
4,RRIRMRPPRLPRPRPRPYYIPRP,-0.227
5,RRIRDRPPRLPRPRPRPGVKPRP,0.0336
6,RRIRDRPPRLPRPRPRPWTHPRP,-0.291
7,RRIRERPPRLPRPRPRPEKVPRP,-0.0174
8,RRIRVRPPRLPRPRPRPYIGPRP,-0.661
9,RRIRERPPRLPRPRPRPPWGPRP,0.285
10,RRIRKRPPRLPRPRPRPQRGPRP,-0.0338
11,RRIRQRPPRLPRPRPRPSEYPRP,-0.44
12,RRIRQRPPRLPRPRPRPCQRPRP,-0.0113
13,RRIRYRPPRLPRPRPRPQWYPRP,-0.118
14,RRIRIRPPRLPRPRPRPPRPPRP,0.822
15,RRIRHRPPRLPRPRPRPGSAPRP,0.323
16,RRIRIRPPRLPRPRPRPPLTPRP,-0.0194
17,RRIRRRPPRLPRPRPRPSMPPRP,-0.0915
18,RRIRMRPPRLPRPRPRPKKTPRP,1.46
19,RRIRIRPPRLPRPRPRPRDYPRP,-0.14
20,RRIRMRPPRLPRPRPRPSNEPRP,0.287
21,RRIRLRPPRLPRPRPRPTWNPRP,-0.114
22,RRIRPRPPRLPRPRPRPACIPRP,-0.25
23,RRIRRRPPRLPRPRPRPVAWPRP,0.341
24,RRIRPRPPRLPRPRPRPDSLPRP,-0.257
25,RRIRVRPPRLPRPRPRPCMRPRP,0.108

row,Sequence,shrunken log2 fold change
1,RRIRHRPPRLPRPRPRPCIKPRP,-0.721
2,RRIRERPPRLPRPRPRPNQCPRP,-0.00674
3,RRIRFRPPRLPRPRPRPPRMPRP,0.332
4,RRIRYRPPRLPRPRPRPILIPRP,-0.256
5,RRIRKRPPRLPRPRPRPKPFPRP,0.611
6,RRIRNRPPRLPRPRPRPFITPRP,-0.783
7,RRIRHRPPRLPRPRPRPMVVPRP,0.00198
8,RRIRRRPPRLPRPRPRPTTNPRP,0.338
9,RRIRVRPPRLPRPRPRPRICPRP,-0.229
10,RRIRYRPPRLPRPRPRPHWAPRP,-0.24
11,RRIRWRPPRLPRPRPRPKLVPRP,0.00348
12,RRIRVRPPRLPRPRPRPIPRPRP,0.0796
13,RRIRWRPPRLPRPRPRPGQQPRP,-0.17
14,RRIRMRPPRLPRPRPRPGEFPRP,0.00408
15,RRIRDRPPRLPRPRPRPDGDPRP,-0.0107
16,RRIRMRPPRLPRPRPRPIVGPRP,0.108
17,RRIRWRPPRLPRPRPRPEPIPRP,0.204
18,RRIRTRPPRLPRPRPRPDQSPRP,-0.0809
19,RRIRTRPPRLPRPRPRPTPYPRP,-0.298
20,RRIRVRPPRLPRPRPRPPQPPRP,1.38
21,RRIRLRPPRLPRPRPRPMYNPRP,-0.273
22,RRIRARPPRLPRPRPRPRKVPRP,0.615
23,RRIRSRPPRLPRPRPRPCVEPRP,0.0654
24,RRIRFRPPRLPRPRPRPGSKPRP,-0.43
25,RRIRLRPPRLPRPRPRPSIAPRP,-0.217

row,Sequence,shrunken log2 fold change
1,RRIRERPPRLPRPRPRPEVIPRP,-0.00884
2,RRIRPRPPRLPRPRPRPMYFPRP,-0.0431
3,RRIRHRPPRLPRPRPRPMTLPRP,-0.0135
4,RRIRDRPPRLPRPRPRPYSRPRP,-0.00164
5,RRIRIRPPRLPRPRPRPAGTPRP,-0.108
6,RRIRDRPPRLPRPRPRPNGWPRP,0.612
7,RRIRRRPPRLPRPRPRPEQYPRP,0.17
8,RRIRFRPPRLPRPRPRPIWVPRP,-0.107
9,RRIRMRPPRLPRPRPRPPATPRP,2.56
10,RRIRHRPPRLPRPRPRPMYPPRP,-0.304
11,RRIRFRPPRLPRPRPRPWEWPRP,0.0781
12,RRIRKRPPRLPRPRPRPVIAPRP,0.437
13,RRIRQRPPRLPRPRPRPSQYPRP,-0.244
14,RRIRLRPPRLPRPRPRPFWSPRP,-0.162
15,RRIRSRPPRLPRPRPRPYPDPRP,-0.172
16,RRIRQRPPRLPRPRPRPFEQPRP,0.106
17,RRIRKRPPRLPRPRPRPCPAPRP,0.17
18,RRIRPRPPRLPRPRPRPHCCPRP,-0.181
19,RRIRPRPPRLPRPRPRPDLKPRP,-0.0801
20,RRIRERPPRLPRPRPRPDSWPRP,-0.563
21,RRIRGRPPRLPRPRPRPFQGPRP,-0.0101
22,RRIRDRPPRLPRPRPRPRIQPRP,-0.0934
23,RRIRFRPPRLPRPRPRPGWNPRP,0.0411
24,RRIRERPPRLPRPRPRPICEPRP,0.0105
25,RRIRYRPPRLPRPRPRPCQNPRP,0.0275
